Biological target: membrane IgE on U266 B1 cells (human) (UniProt P01854)
Test: FACS, U266 B1 cells

EC50 | Binder
6 µg/mL | MAE15 (antibody, V domains shown) VH: DVQHQESEPDLVKPSQSLSLTCTVTGYSITSGYNRHWIRQFPGNKLEWMGYIHYSGSTNYNPSLKRRISITRDTSKNQFFLQLNSVTTEDTATYYCARGSIYYYGSRYRYFDVWGAGTTVTVSS VL: DIQLTQSPASLAVSLGQRATISCKASQSVDYDGDSYMNWYQQKPGQPPKLLIYAASNLESGIPARFSGSGSGTDFTLNIHPVEEEDAATYYCQQSNEDPFTFGAGT
0.15 µg/mL | MAE11 (antibody, V domains shown) VH: DVQLQESGPGLVKPSQSLSLACSVTGYSITSGYSWNWIRQFPGNKLEWMGSITYDGSSNYNPSLKNRISVTRDTSQNQFFLKLNSATAEDTATYYCARGSHYFGHWHFAVWGAGTTVTVSS VL: DIVLTQSPASLAVSLGQRATISCKASQSVDYDGDSYMNWYQQKPGQPPILLIYAASYLGSEIPARFSGSGSGTDFTLNIHPVEEEDAATFYCQQSHEDPYTFGAGTKLEIK
1 µg/mL | MAE13 (antibody, V domains shown) VH: DVQLQESGPGLVKPSQSLSLTCTVTGYTITSDNAWNWIRQFPGNKLEWMGYINHSGTTSYNPSLKSRISITRDTSKNQFFLQLNSVTTEDTATYYCAWVVAYAMDYWGQGTSVTVSS VL: DIVMTQSQKFMSTSVGDRVSVTCKASQNVSSNVAWYQQKPGQSPKALIYSASYRYSGVPDRFTGSGSGTDFTLTISNVQSEDLAEYFCQQYYTYPLYTFGGGTKLEIKR

From patent publication US20070020258A1
